Reference: the supplement of paper PMC9112550, “Optimization of the antimicrobial peptide Bac7 by deep mutational scanning” (BMC Biology, 2022)

Test system: Escherichia coli TOP10
Test: shrunken log2 fold change of peptide-encoding DNA abundance (4.5 h post-induction vs induction); higher = less antimicrobial activity (less host growth inhibition)
Conditions: time post-induction: 4.5 h; library: site-saturation at positions 5, 18, 19, 20
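Note: peptides expressed intracellularly from a pBAD plasmid library in pooled LB shake-flask culture, induced with 0.3% L-arabinose, DNA abundance read by NGS, three biological replicates, DESeq2 with apeglm shrinkage.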

Sequence | shrunken log2 fold change
RRIRKRPPRLPRPRPRPCWSPRP | 0.00256
RRIRNRPPRLPRPRPRPHCFPRP | -0.641
RRIRVRPPRLPRPRPRPYDHPRP | -0.347
RRIRVRPPRLPRPRPRPIKNPRP | -0.361
RRIRRRPPRLPRPRPRPLAFPRP | 0.448
RRIRGRPPRLPRPRPRPGKAPRP | 0.529
RRIRARPPRLPRPRPRPNGTPRP | 0.021
RRIRARPPRLPRPRPRPFYFPRP | 0.00316
RRIRSRPPRLPRPRPRPRKHPRP | 0.0783
RRIRLRPPRLPRPRPRPLLVPRP | -0.12
RRIRFRPPRLPRPRPRPHCWPRP | -0.0304
RRIRKRPPRLPRPRPRPDEKPRP | 0.411
RRIRKRPPRLPRPRPRPPFEPRP | 0.143
RRIRTRPPRLPRPRPRPKYHPRP | -0.243
RRIRYRPPRLPRPRPRPWELPRP | 0.0358
RRIRNRPPRLPRPRPRPYINPRP | -0.801
RRIRARPPRLPRPRPRPYIDPRP | -0.186
RRIRYRPPRLPRPRPRPQFNPRP | -0.755
RRIRIRPPRLPRPRPRPLMCPRP | -0.164
RRIRCRPPRLPRPRPRPWMCPRP | -0.851
RRIRARPPRLPRPRPRPQAHPRP | 0.324
RRIRPRPPRLPRPRPRPNAAPRP | 0.237
RRIRPRPPRLPRPRPRPVWIPRP | 0.0152
RRIRVRPPRLPRPRPRPLGAPRP | 0.352
RRIRMRPPRLPRPRPRPIVFPRP | 0.038

Sequence | shrunken log2 fold change
RRIRYRPPRLPRPRPRPQQCPRP | -0.145
RRIRDRPPRLPRPRPRPNAKPRP | 0.128
RRIRLRPPRLPRPRPRPMWIPRP | -0.199
RRIRVRPPRLPRPRPRPQDNPRP | -1.05
RRIRHRPPRLPRPRPRPVACPRP | 0.00664
RRIRRRPPRLPRPRPRPWFWPRP | 1.76
RRIRDRPPRLPRPRPRPCRMPRP | 0.0112
RRIRGRPPRLPRPRPRPLDSPRP | 0.217
RRIRDRPPRLPRPRPRPPGRPRP | 0.104
RRIRARPPRLPRPRPRPTHWPRP | 0.863
RRIRTRPPRLPRPRPRPLWAPRP | 0.277
RRIRQRPPRLPRPRPRPNHPPRP | -0.249
RRIRHRPPRLPRPRPRPPESPRP | 0.211
RRIRTRPPRLPRPRPRPGDIPRP | -0.119
RRIRMRPPRLPRPRPRPAYFPRP | -0.197
RRIRTRPPRLPRPRPRPCHYPRP | -0.253
RRIRVRPPRLPRPRPRPNIKPRP | -0.497
RRIRNRPPRLPRPRPRPDCVPRP | -0.106
RRIRTRPPRLPRPRPRPLHHPRP | -0.494
RRIRPRPPRLPRPRPRPIFFPRP | 0.211
RRIRNRPPRLPRPRPRPEFLPRP | 0.00817
RRIRTRPPRLPRPRPRPHSRPRP | 0.0646
RRIRSRPPRLPRPRPRPITYPRP | -0.361
RRIRGRPPRLPRPRPRPSFLPRP | -0.118
RRIRYRPPRLPRPRPRPPSMPRP | -0.692

Sequence | shrunken log2 fold change
RRIRARPPRLPRPRPRPNLKPRP | 0.164
RRIRRRPPRLPRPRPRPTQSPRP | 0.804
RRIRKRPPRLPRPRPRPLAVPRP | 0.0855
RRIRIRPPRLPRPRPRPNAIPRP | -0.204
RRIRTRPPRLPRPRPRPKCYPRP | -0.0601
RRIRMRPPRLPRPRPRPKGLPRP | -0.0628
RRIRKRPPRLPRPRPRPNMCPRP | 0.0251
RRIRVRPPRLPRPRPRPDTFPRP | -0.0845
RRIRLRPPRLPRPRPRPCECPRP | 0.202
RRIRYRPPRLPRPRPRPQNVPRP | -0.389
RRIRFRPPRLPRPRPRPTMFPRP | -0.322
RRIRHRPPRLPRPRPRPTTSPRP | -0.146
RRIRTRPPRLPRPRPRPAHSPRP | 0.0608
RRIRIRPPRLPRPRPRPFPVPRP | -0.339
RRIRNRPPRLPRPRPRPSADPRP | 0.212
RRIRGRPPRLPRPRPRPFRKPRP | -0.0984
RRIRIRPPRLPRPRPRPWQQPRP | 0.0529
RRIRMRPPRLPRPRPRPPPWPRP | 1.38
RRIRYRPPRLPRPRPRPPEHPRP | -0.0551
RRIRWRPPRLPRPRPRPYCFPRP | -0.379
RRIRERPPRLPRPRPRPFVSPRP | 0.176
RRIRGRPPRLPRPRPRPDKTPRP | 0.104
RRIRGRPPRLPRPRPRPIVRPRP | 0.211
RRIRHRPPRLPRPRPRPFFHPRP | -0.454
RRIRTRPPRLPRPRPRPQWEPRP | 0.0154

Sequence | shrunken log2 fold change
RRIRPRPPRLPRPRPRPWLMPRP | -0.118
RRIRMRPPRLPRPRPRPTAWPRP | 1.4
RRIRVRPPRLPRPRPRPCLVPRP | -0.115
RRIRRRPPRLPRPRPRPMAEPRP | -0.0431
RRIRWRPPRLPRPRPRPEIAPRP | 0.355
RRIRARPPRLPRPRPRPVQVPRP | 0.123
RRIRKRPPRLPRPRPRPVKFPRP | 0.048
RRIRHRPPRLPRPRPRPILRPRP | -0.178
RRIRRRPPRLPRPRPRPKMQPRP | 0.336
RRIRVRPPRLPRPRPRPSSQPRP | -0.0546
RRIRWRPPRLPRPRPRPSLLPRP | 0.0919
RRIRPRPPRLPRPRPRPNIGPRP | 0.0125
RRIRWRPPRLPRPRPRPRQKPRP | 0.0761
RRIRIRPPRLPRPRPRPLRPPRP | 0.583
RRIRFRPPRLPRPRPRPDEIPRP | -0.022
RRIRQRPPRLPRPRPRPASVPRP | 0.253
RRIRGRPPRLPRPRPRPISYPRP | -0.0956
RRIRLRPPRLPRPRPRPMIDPRP | -0.0169
RRIRIRPPRLPRPRPRPGMMPRP | -0.453
RRIRRRPPRLPRPRPRPHWNPRP | -0.159
RRIRARPPRLPRPRPRPCLMPRP | -0.0504
RRIRSRPPRLPRPRPRPCGMPRP | -0.0447
RRIRERPPRLPRPRPRPFYCPRP | 0.0826
RRIRARPPRLPRPRPRPCPWPRP | -0.0222
RRIRFRPPRLPRPRPRPIEVPRP | 0.0653

Sequence | shrunken log2 fold change
RRIRTRPPRLPRPRPRPSVYPRP | -0.389
RRIRIRPPRLPRPRPRPLQCPRP | 0.0339
RRIRFRPPRLPRPRPRPAFCPRP | 0.0477
RRIRGRPPRLPRPRPRPESGPRP | 1.12
RRIRSRPPRLPRPRPRPAAGPRP | 0.585
RRIRRRPPRLPRPRPRPHYFPRP | -0.173
RRIRMRPPRLPRPRPRPWATPRP | 0.194
RRIRDRPPRLPRPRPRPNCVPRP | 0.0238
RRIRSRPPRLPRPRPRPVHAPRP | 0.214
RRIRERPPRLPRPRPRPKLQPRP | 0.00297
RRIRSRPPRLPRPRPRPVTGPRP | 0.255
RRIRPRPPRLPRPRPRPYISPRP | -0.75
RRIRYRPPRLPRPRPRPTTYPRP | -0.941
RRIRCRPPRLPRPRPRPWASPRP | 0.0212
RRIRCRPPRLPRPRPRPPNDPRP | 0.383
RRIRKRPPRLPRPRPRPREIPRP | 0.736
RRIRTRPPRLPRPRPRPYYTPRP | -0.336
RRIRARPPRLPRPRPRPWVSPRP | -0.0266
RRIRVRPPRLPRPRPRPTQDPRP | 0.386
RRIRYRPPRLPRPRPRPYGFPRP | -0.182
RRIRCRPPRLPRPRPRPIKAPRP | 0.0144
RRIRFRPPRLPRPRPRPQAWPRP | 0.15
RRIRPRPPRLPRPRPRPRYAPRP | 0.0891
RRIRGRPPRLPRPRPRPSMYPRP | 0.173
RRIRFRPPRLPRPRPRPKHYPRP | -0.271
